± gives the standard deviation of the averaged measurements.
What was measured:
[1] = test system: Saccharomyces cerevisiae; test: protein stability index of tFT-peptide fusion (C-terminal peptide) (PSI (0-1 scale)); higher = more stable (slower turnover)
Protocol: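 MPS profiling in S. cerevisiae of the tFT-X12 degron library: putative degron peptides plus stable controls, 12 aa, fused to the C-terminus of a sfGFP-mCherry timer. Cells are FACS-sorted into 8 mCherry/sfGFP bins and deep-sequenced. PSI runs from 0 (unstable) to 1 (stable). Backgrounds are wild type, das1Δ and doa10Δ at 30 °C, and wild type, das1Δ, cdc34-1 and cdc53-1 at 37 °C; 2-3 technical replicates each.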

[2] = test system: Saccharomyces cerevisiae; test: as above; settings: genetic background: wild type; temperature: 30 C
[3] = genetic background: cdc34-1, temperature: 37 C
[4] = genetic background: cdc53-1, temperature: 37 C
[5] = genetic background: das1 deletion, temperature: 30 C
[6] = genetic background: das1 deletion, temperature: 37 C
[7] = genetic background: doa10 deletion, temperature: 30 C
[8] = genetic background: wild type, temperature: 30 C
[9] = genetic background: wild type, temperature: 37 C
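Note: PSI is a weighted mean of sequencing reads over stability bins, variants kept only with over 10 reads, mCherry proximal and sfGFP distal, peptide attached via GGGS linker.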

| Sequence | protein stability index [1, 3] | protein stability index [1, 4] | protein stability index [1, 5] | protein stability index [1, 6] | protein stability index [1, 7] | protein stability index [1, 8] | protein stability index [1, 9] | protein stability index [2] |
| --- | --- | --- | --- | --- | --- | --- | --- | --- |
| GFFCFLYFVVMF | 0.148 ± 0.0033 | 0.1695 ± 0.0013 | 0.18 ± 0.026 | 0.296 ± 0.013 | 0.2127 ± 0.0014 | 0.187 ± 0.018 | 0.277 ± 0.0028 | 0.226 ± 0.021 |
| GFIRVRHLRSLC | 0.55 ± 0.0029 | 0.658 ± 0.024 | 0.645 ± 0.019 | 0.7128 ± 0.0023 | 0.121 ± 0.019 | 0.138 ± 0.015 | 0.194 ± 0.026 | 0.234 ± 0.026 |
| GFSFFFIFWFFF | 0.394 ± 0.014 | 0.422 ± 0.011 | 0.35 ± 0.018 | 0.503 ± 0.034 | 0.378 ± 0.034 | 0.339 ± 0.027 | 0.436 ± 0.033 | 0.348 ± 0.022 |
| GFVCFIHLFLCF | 0.3496 ± 0.0027 | 0.365 ± 0.011 | 0.334 ± 0.027 | 0.425 ± 0.027 | 0.471 ± 0.045 | 0.316 ± 0.0089 | 0.367 ± 0.0056 | 0.407 ± 0.04 |
| GFVVYLLLSYLF | 0.34 ± 0.016 | 0.413 ± 0.035 | 0.279 ± 0.039 | 0.482 ± 0.016 | 0.256 ± 0.0032 | 0.28 ± 0.019 | 0.437 ± 0.024 | 0.333 ± 0.091 |
| GGFHWCPSASRG | 0.712 ± 0.01 | 0.755 ± 0.016 | 0.647 ± 0.031 | 0.7536 ± 0.0026 | 0.678 ± 0.02 | 0.6726 ± 0.0059 | 0.749 ± 0.014 | 0.711 ± 0.017 |
| GGGGLRVVVWLV | 0.534 ± 0.032 | 0.647 ± 0.022 | 0.501 ± 0.021 | 0.6625 ± 0.0052 | 0.111 ± 0.011 | 0.124 ± 0.018 | 0.15 ± 0.01 | 0.211 ± 0.049 |
| GGRLGRAGGGGR | 0.633 ± 0.026 | 0.7243 ± 0.0029 | 0.642 ± 0.024 | 0.7168 ± 0.00089 | 0.66 ± 0.026 | 0.6472 ± 0.0025 | 0.68996 ± 0.00034 | 0.639 ± 0.22 |
| GGVVLVVVFCCV | 0.165 ± 0.0053 | 0.34 ± 0.02 | 0.217 ± 0.025 | 0.352 ± 0.01 | 0.18 ± 0.015 | 0.204 ± 0.029 | 0.3395 ± 0.00053 | 0.42 ± 0.13 |
| GHFILFWVFCFM | 0.316 ± 0.058 | 0.39 ± 0.014 | 0.31 ± 0.046 | 0.453 ± 0.031 | 0.254 ± 0.0053 | 0.303 ± 0.023 | 0.409 ± 0.024 | 0.369 ± 0.024 |
| GHSALWQVPRLM | 0.697 ± 0.053 | 0.733 ± 0.014 | 0.65 ± 0.048 | 0.7535 ± 0.0069 | 0.26 ± 0.013 | 0.29 ± 0.0041 | 0.574 ± 0.023 | 0.474 ± 0.015 |
| GLCGVVVGCWVR | 0.395 ± 0.017 | 0.417 ± 0.017 | 0.286 ± 0.027 | 0.484 ± 0.016 | 0.293 ± 0.011 | 0.283 ± 0.021 | 0.4657 ± 0.0044 | 0.397 ± 0.014 |
| GLDLLTKFSKEC | 0.678 ± 0.049 | 0.734 ± 0.036 | 0.617 ± 0.02 | 0.741 ± 0.015 | 0.291 ± 0.027 | 0.33 ± 0.015 | 0.585 ± 0.011 | 0.465 ± 0.034 |
| GLFFLCLLSMCF | 0.34 ± 0.012 | 0.303 ± 0.021 | 0.306 ± 0.029 | 0.423 ± 0.023 | 0.336 ± 0.014 | 0.29 ± 0.029 | 0.396 ± 0.0071 | 0.384 ± 0.061 |
| GLNKGKYIKLYT | 0.68 ± 0.021 | 0.756 ± 0.017 | 0.635 ± 0.035 | 0.733 ± 0.08 | 0.4605 ± 0.0033 | 0.486 ± 0.0097 | 0.641 ± 0.034 | 0.558 ± 0.089 |
| GLSVLLTCIHFV | 0.537 ± 0.031 | 0.65 ± 0.042 | 0.482 ± 0.013 | 0.598 ± 0.01 | 0.164 ± 0.023 | 0.176 ± 0.026 | 0.333 ± 0.014 | 0.256 ± 0.0041 |
| GNRDLVNTSVEG | 0.679 ± 0.029 | 0.721 ± 0.011 | 0.619 ± 0.045 | 0.715 ± 0.051 | 0.6331 ± 0.006 | 0.633 ± 0.033 | 0.6989 ± 0.0025 | 0.547 ± 0.17 |
| GPVRSPPSPTPR | 0.674 ± 0.03 | 0.737 ± 0.0096 | 0.682 ± 0.015 | 0.73559 ± 0.00023 | 0.674 ± 0.024 | 0.66 ± 0.027 | 0.698 ± 0.014 | 0.727 ± 0.05 |
| GQFVISVRFLYE | 0.454 ± 0.045 | 0.503 ± 0.044 | 0.412 ± 0.024 | 0.5374 ± 0.0031 | 0.389 ± 0.0083 | 0.417 ± 0.024 | 0.516 ± 0.011 | 0.515 ± 0.068 |
| GRGVRLRVRLLL | 0.664 ± 0.023 | 0.73 ± 0.031 | 0.606 ± 0.022 | 0.7 ± 0.019 | 0.185 ± 0.014 | 0.217 ± 0.006 | 0.43 ± 0.04 | 0.292 ± 0.1 |
| GRVETIEFLFLR | 0.455 ± 0.0049 | 0.4335 ± 0.0015 | 0.368 ± 0.038 | 0.525 ± 0.0074 | 0.656 ± 0.012 | 0.394 ± 0.044 | 0.508 ± 0.022 | 0.464 ± 0.025 |
| GRWAFFTWLRWS | 0.553 ± 0.016 | 0.674 ± 0.016 | 0.62 ± 0.047 | 0.6825 ± 0.0042 | 0.175 ± 0.0041 | 0.177 ± 0.025 | 0.269 ± 0.047 | 0.261 ± 0.014 |
| GSDGVGGTVLYA | 0.685 ± 0.061 | 0.755 ± 0.014 | 0.634 ± 0.021 | 0.729 ± 0.015 | 0.638 ± 0.013 | 0.666 ± 0.023 | 0.728 ± 0.035 | 0.687 ± 0.037 |
| GSLVLSCLMSRA | 0.558 ± 0.04 | 0.603 ± 0.018 | 0.42 ± 0.034 | 0.573 ± 0.0029 | 0.431 ± 0.037 | 0.438 ± 0.012 | 0.537 ± 0.02 | 0.4872 ± 0.00045 |
| GTIFLIRVLLFG | 0.154 ± 0.0049 | 0.284 ± 0.026 | 0.222 ± 0.024 | 0.387 ± 0.029 | 0.171 ± 0.015 | 0.213 ± 0.023 | 0.357 ± 0.069 | 0.284 ± 0.028 |
| GVARALFLWKAV | 0.64 ± 0.032 | 0.709 ± 0.018 | 0.65 ± 0.022 | 0.7486 ± 0.0021 | 0.286 ± 0.0013 | 0.317 ± 0.03 | 0.464 ± 0.0088 | 0.379 ± 0.041 |
| GVLTVVLQVGVV | 0.299 ± 0.033 | 0.378 ± 0.053 | 0.309 ± 0.038 | 0.428 ± 0.019 | 0.282 ± 0.011 | 0.304 ± 0.02 | 0.407 ± 0.0063 | 0.393 ± 0.0095 |
| GVMICLDLLLSV | 0.482 ± 0.011 | 0.521 ± 0.021 | 0.377 ± 0.025 | 0.539 ± 0.014 | 0.361 ± 0.018 | 0.395 ± 0.017 | 0.528 ± 0.0073 | 0.468 ± 0.0081 |
| GVVCCGFFFLVV | 0.475 ± 0.012 | 0.525 ± 0.028 | 0.401 ± 0.024 | 0.57 ± 0.018 | 0.363 ± 0.0058 | 0.41 ± 0.04 | 0.528 ± 0.055 | 0.464 ± 0.016 |
| GWCLLRVLVLVW | 0.0502 ± 0.035 | 0.043 ± 0.0082 | 0.0937 ± 0.023 | 0.107 ± 0.0087 | 0.104 ± 0.024 | 0.0811 ± 0.02 | 0.0921 ± 0.035 | 0.175 ± 0.022 |

Reference: the supplement of paper PMC10724198
